In general, EC50 refers to the midpoint of the concentration-response curve. A high value points to lower potency in that assay. As usually defined, the IC50 is the concentration needed to halve the response being measured. Read a low IC50 as greater potency in that assay.

The results in this text go back to US20260176358A1.

In one assay the target is CGRP. Description: cell-based or functional assay.
The target of another assay is PACAP27 (UniProt P18509). The assay can be described thus: ELISA, biotinylated peptide on streptavidin plate. On the technique in general: ELISA stands for enzyme-linked immunosorbent assay.
PACAP27, sequence (P18509 132-158 limits assumed): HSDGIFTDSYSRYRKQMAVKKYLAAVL
In assay [1] the target is PACAP38 (UniProt P18509). The assay can be described thus: ELISA, biotinylated peptide on streptavidin plate.
PACAP38, sequence (P18509 132-169 limits assumed): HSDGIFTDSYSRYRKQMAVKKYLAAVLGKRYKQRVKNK
A further assay has as its target VIP (UniProt P01282). Description: ELISA, biotinylated peptide on streptavidin plate.
In assay [2] the target is PACAP38 (UniProt P18509). Description: competition ELISA, biotinylated PACAP38 to coated PAC1-Fc.
The target of assay [3] is PACAP38 (UniProt P18509). The assay can be described thus: competition ELISA, biotinylated PACAP38 to coated VPAC1-Fc.
Assay [4] addresses PACAP38 (UniProt P18509). The assay can be described thus: competition ELISA, biotinylated PACAP38 to coated VPAC2-Fc.

VIP, sequence (P01282 125-152 limits assumed): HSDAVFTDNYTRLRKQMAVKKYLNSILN

For Fremanezumab (antibody), the IC50, inhibition of cAMP production in SK-N-MC cells in the assay with CGRP came to 40 nM.

Consider LY-3451838 (antibody), for which the EC50 turned out to be 0.11 nM with PACAP27, 0.06 nM in the assay with PACAP38 [1] and 9.58 nM in the assay with VIP. The IC50 came to 6.46 nM in the assay with PACAP38 [2], 1.34 nM in the assay with PACAP38 [3] and 1.42 nM with PACAP38 [4].

Take ALD-1910 (antibody): the results for the EC50 with PACAP27, in the assay with PACAP38 [1] and with VIP were 0.15 nM, 0.07 nM and 1.02 nM, respectively. The IC50 was found to be 4.89 nM with PACAP38 [2], 0.65 nM with PACAP38 [3] and 1.58 nM with PACAP38 [4].
